# Test results taken from patent publication US10646600B2, “HER2 polypeptides useful for imaging and monitoring tumors and cancers” (GE HEALTHCARE LIMITED, priority 2013, dated 2020).
# Entries after “also recorded” stand apart in the source; their conditions may differ.
# How the values were obtained:
# Biodistribution, tissues = assay type: in vivo, mice
# Description: Mice were sacrificed at different time points by exsanguination.
# MCF7-HER2 xenografts = test: PET-CT imaging and kinetic modeling, MCF7-HER2 xenografts; assay type: in vivo, mice
# Description: Mice were anesthetized through isoflurane inhalation and scanned on a dedicated small animal PET-CT scanner (Siemens Multimodality Inveon, Erlangen, Germany). Low dose CT scans were first acquired (80 kVp, 0.5 mA, 220 degree rotation, 600 ms per degree exposure time, 80 μm reconstruction pixel size) for PET attenuation correction and to obtain an anatomical reference. PET images were acquired following a bolus i.v. injection of approximately 3.7 MBq [^18F]GE-226 in the tail vein. Dynamic emission scans were acquired in list mode format over 60 minutes. The acquired data were sorted into 0.5-mm sinogram bins and 19 time frames for image reconstruction by filtered back projection (4×15 seconds and 4×60 seconds followed by 11×300 seconds). The Siemens Inveon Research Workplace software was used for visualization of radiotracer uptake. 30 to 60-minute cumulative images of the dynamic data were employed to define 3-dimensional (3D) regions of interest (ROI). […] The count densities were averaged for all ROIs at each time point to obtain time versus radioactivity curves (TAC). Tumor TACs were normalized to injected dose measured by a VDC-304 dose calibrator (Veenstra Instruments, Joure, Netherlands) and normalized uptake was expressed as percentage injected dose per mL tissue (NUV; % ID/mL). […]
substance,measurement,setting,value
[^18F]GE-226: HER2-binding 18F-radiolabelled Affibody molecule ZHER2:2891,"Tissue uptake, Blood","Biodistribution, tissues; 5 min",0.82 ± 0.83 % ID/g tissue
same,"Tissue uptake, Bone","Biodistribution, tissues; 5 min",1.20 ± 1.08 % ID/g tissue
same,"Tissue uptake, Brain","Biodistribution, tissues; 5 min",0.33 ± 0.35 % ID/g tissue
same,"Tissue uptake, Caecum empty","Biodistribution, tissues; 5 min",3.24 ± 3.76 % ID/g tissue
same,"Tissue uptake, Caecum full","Biodistribution, tissues; 5 min",0.97 ± 1.09 % ID/g tissue
same,"Tissue uptake, Colon empty","Biodistribution, tissues; 5 min",2.68 ± 2.44 % ID/g tissue
same,"Tissue uptake, Colon full","Biodistribution, tissues; 5 min",2.40 ± 2.53 % ID/g tissue
same,"Tissue uptake, Duodenum empty","Biodistribution, tissues; 5 min",3.21 ± 3.50 % ID/g tissue
same,"Tissue uptake, Duodenum full","Biodistribution, tissues; 5 min",2.55 ± 2.17 % ID/g tissue
same,"Tissue uptake, Gallbladder","Biodistribution, tissues; 5 min",3.22 ± 3.29 % ID/g tissue
same,"Tissue uptake, Heart","Biodistribution, tissues; 5 min",3.10 ± 2.83 % ID/g tissue
same,"Tissue uptake, Jejunum empty","Biodistribution, tissues; 5 min",2.48 ± 2.81 % ID/g tissue
same,"Tissue uptake, Jejunum full","Biodistribution, tissues; 5 min",1.68 ± 1.38 % ID/g tissue
same,"Tissue uptake, Kidney","Biodistribution, tissues; 5 min",15.02 ± 6.99 % ID/g tissue
same,"Tissue uptake, Liver","Biodistribution, tissues; 5 min",2.90 ± 2.96 % ID/g tissue
same,"Tissue uptake, Lung","Biodistribution, tissues; 5 min",3.90 ± 3.84 % ID/g tissue
same,"Tissue uptake, Muscle","Biodistribution, tissues; 5 min",0.88 ± 0.81 % ID/g tissue
same,"Tissue uptake, Plasma","Biodistribution, tissues; 5 min",12.71 ± 14.90 % ID/g tissue
same,"Tissue uptake, Spleen","Biodistribution, tissues; 5 min",3.18 ± 2.66 % ID/g tissue
same,"Tissue uptake, Stomach empty","Biodistribution, tissues; 5 min",2.02 ± 1.62 % ID/g tissue
same,"Tissue uptake, Stomach full","Biodistribution, tissues; 5 min",1.47 ± 1.85 % ID/g tissue
same,"Tissue uptake, Urine","Biodistribution, tissues; 5 min",148.33 ± 127.65 % ID/g tissue
same,"Tissue uptake, Blood","Biodistribution, tissues; 15 min",2.00 ± 0.75 % ID/g tissue
same,"Tissue uptake, Bone","Biodistribution, tissues; 15 min",3.05 ± 0.88 % ID/g tissue
same,"Tissue uptake, Brain","Biodistribution, tissues; 15 min",0.34 ± 0.11 % ID/g tissue
same,"Tissue uptake, Caecum empty","Biodistribution, tissues; 15 min",4.94 ± 2.84 % ID/g tissue
same,"Tissue uptake, Caecum full","Biodistribution, tissues; 15 min",1.68 ± 0.85 % ID/g tissue
same,"Tissue uptake, Colon empty","Biodistribution, tissues; 15 min",5.78 ± 2.99 % ID/g tissue
same,"Tissue uptake, Colon full","Biodistribution, tissues; 15 min",3.43 ± 1.89 % ID/g tissue
same,"Tissue uptake, Duodenum empty","Biodistribution, tissues; 15 min",5.16 ± 2.36 % ID/g tissue
same,"Tissue uptake, Duodenum full","Biodistribution, tissues; 15 min",4.07 ± 1.48 % ID/g tissue
same,"Tissue uptake, Gallbladder","Biodistribution, tissues; 15 min",5.10 ± 1.77 % ID/g tissue
same,"Tissue uptake, Heart","Biodistribution, tissues; 15 min",3.52 ± 1.19 % ID/g tissue
same,"Tissue uptake, Jejunum empty","Biodistribution, tissues; 15 min",4.92 ± 1.33 % ID/g tissue
same,"Tissue uptake, Jejunum full","Biodistribution, tissues; 15 min",2.71 ± 1.01 % ID/g tissue
same,"Tissue uptake, Kidney","Biodistribution, tissues; 15 min",65.82 ± 18.48 % ID/g tissue
same,"Tissue uptake, Liver","Biodistribution, tissues; 15 min",4.58 ± 1.77 % ID/g tissue
same,"Tissue uptake, Lung","Biodistribution, tissues; 15 min",5.99 ± 2.10 % ID/g tissue
same,"Tissue uptake, Muscle","Biodistribution, tissues; 15 min",2.05 ± 0.86 % ID/g tissue
same,"Tissue uptake, Plasma","Biodistribution, tissues; 15 min",9.41 ± 3.75 % ID/g tissue
same,"Tissue uptake, Spleen","Biodistribution, tissues; 15 min",3.94 ± 3.24 % ID/g tissue
same,"Tissue uptake, Stomach empty","Biodistribution, tissues; 15 min",3.75 ± 1.38 % ID/g tissue
same,"Tissue uptake, Stomach full","Biodistribution, tissues; 15 min",2.68 ± 1.04 % ID/g tissue
same,"Tissue uptake, Urine","Biodistribution, tissues; 15 min",283.73 ± 243.00 % ID/g tissue
same,"Tissue uptake, Blood","Biodistribution, tissues; 30 min",0.53 ± 0.35 % ID/g tissue
same,"Tissue uptake, Bone","Biodistribution, tissues; 30 min",1.59 ± 0.94 % ID/g tissue
same,"Tissue uptake, Brain","Biodistribution, tissues; 30 min",0.13 ± 0.08 % ID/g tissue
same,"Tissue uptake, Caecum empty","Biodistribution, tissues; 30 min",1.92 ± 0.89 % ID/g tissue
same,"Tissue uptake, Caecum full","Biodistribution, tissues; 30 min",0.60 ± 0.27 % ID/g tissue
same,"Tissue uptake, Colon empty","Biodistribution, tissues; 30 min",1.80 ± 0.94 % ID/g tissue
same,"Tissue uptake, Colon full","Biodistribution, tissues; 30 min",1.00 ± 0.59 % ID/g tissue
same,"Tissue uptake, Duodenum empty","Biodistribution, tissues; 30 min",2.91 ± 1.27 % ID/g tissue
same,"Tissue uptake, Duodenum full","Biodistribution, tissues; 30 min",2.87 ± 1.18 % ID/g tissue
same,"Tissue uptake, Gallbladder","Biodistribution, tissues; 30 min",2.74 ± 1.06 % ID/g tissue
same,"Tissue uptake, Heart","Biodistribution, tissues; 30 min",1.27 ± 0.60 % ID/g tissue
same,"Tissue uptake, Jejunum empty","Biodistribution, tissues; 30 min",1.87 ± 1.12 % ID/g tissue
same,"Tissue uptake, Jejunum full","Biodistribution, tissues; 30 min",1.73 ± 1.25 % ID/g tissue
same,"Tissue uptake, Kidney","Biodistribution, tissues; 30 min",23.54 ± 11.70 % ID/g tissue
same,"Tissue uptake, Liver","Biodistribution, tissues; 30 min",2.27 ± 1.23 % ID/g tissue
same,"Tissue uptake, Lung","Biodistribution, tissues; 30 min",3.15 ± 1.84 % ID/g tissue
same,"Tissue uptake, Muscle","Biodistribution, tissues; 30 min",0.78 ± 0.48 % ID/g tissue
same,"Tissue uptake, Plasma","Biodistribution, tissues; 30 min",4.10 ± 2.23 % ID/g tissue
same,"Tissue uptake, Spleen","Biodistribution, tissues; 30 min",1.71 ± 0.90 % ID/g tissue
same,"Tissue uptake, Stomach empty","Biodistribution, tissues; 30 min",1.56 ± 0.86 % ID/g tissue
same,"Tissue uptake, Stomach full","Biodistribution, tissues; 30 min",1.28 ± 0.92 % ID/g tissue
same,"Tissue uptake, Urine","Biodistribution, tissues; 30 min",438.65 ± 219.01 % ID/g tissue
same,"Tissue uptake, Blood","Biodistribution, tissues; 60 min",0.32 ± 0.26 % ID/g tissue
same,"Tissue uptake, Bone","Biodistribution, tissues; 60 min",0.68 ± 0.40 % ID/g tissue
same,"Tissue uptake, Brain","Biodistribution, tissues; 60 min",0.10 ± 0.07 % ID/g tissue
same,"Tissue uptake, Caecum empty","Biodistribution, tissues; 60 min",0.87 ± 0.53 % ID/g tissue
same,"Tissue uptake, Caecum full","Biodistribution, tissues; 60 min",0.36 ± 0.22 % ID/g tissue
same,"Tissue uptake, Colon empty","Biodistribution, tissues; 60 min",1.25 ± 0.94 % ID/g tissue
same,"Tissue uptake, Colon full","Biodistribution, tissues; 60 min",0.84 ± 0.59 % ID/g tissue
same,"Tissue uptake, Duodenum empty","Biodistribution, tissues; 60 min",2.29 ± 2.29 % ID/g tissue
same,"Tissue uptake, Duodenum full","Biodistribution, tissues; 60 min",1.53 ± 0.59 % ID/g tissue
same,"Tissue uptake, Gallbladder","Biodistribution, tissues; 60 min",3.92 ± 3.29 % ID/g tissue
same,"Tissue uptake, Heart","Biodistribution, tissues; 60 min",0.64 ± 0.40 % ID/g tissue
same,"Tissue uptake, Jejunum empty","Biodistribution, tissues; 60 min",0.86 ± 0.46 % ID/g tissue
same,"Tissue uptake, Jejunum full","Biodistribution, tissues; 60 min",0.99 ± 0.39 % ID/g tissue
same,"Tissue uptake, Kidney","Biodistribution, tissues; 60 min",11.94 ± 10.30 % ID/g tissue
same,"Tissue uptake, Liver","Biodistribution, tissues; 60 min",1.64 ± 1.49 % ID/g tissue
same,"Tissue uptake, Lung","Biodistribution, tissues; 60 min",1.81 ± 1.32 % ID/g tissue
same,"Tissue uptake, Muscle","Biodistribution, tissues; 60 min",0.50 ± 0.45 % ID/g tissue
same,"Tissue uptake, Plasma","Biodistribution, tissues; 60 min",1.76 ± 1.06 % ID/g tissue
same,"Tissue uptake, Spleen","Biodistribution, tissues; 60 min",0.88 ± 0.56 % ID/g tissue
same,"Tissue uptake, Stomach empty","Biodistribution, tissues; 60 min",0.86 ± 0.72 % ID/g tissue
same,"Tissue uptake, Stomach full","Biodistribution, tissues; 60 min",0.53 ± 0.29 % ID/g tissue
same,"Tissue uptake, Urine","Biodistribution, tissues; 60 min",535.62 ± 303.04 % ID/g tissue
same,kidney radioactivity levels versus tumors,"Biodistribution, tissues; 60 min",comparable to levels in tumors
same,excretion / clearance,"Biodistribution, tissues; mouse, in vivo",predominately and rapidly excreted via the renal route; also recorded: rapid renal clearance
same,"uptake in other organs, including the liver","Biodistribution, tissues; mouse, in vivo",negligible
same,NUV60,"MCF7-HER2 xenografts; PET, 60 minutes",10.9±1.5 % ID/mL
same,Ki (net irreversible uptake rate),MCF7-HER2 xenografts; two-tissue irreversible compartmental model,0.015±0.0035 mL/cm^3/min
